# Square brackets hold non-standard residues; d marks the D form. Peptide text beside a SMILES is read from it. * marks the point of attachment. X3 = O=C(CCCCCNCc1nc2c(sc3cc(Br)cnc32)c(=O)[nH]1)*
# What was measured:
# Assay in all cases: Kinase profiling (radiometric filter-binding)
# Type in all cases: biochemical
# [1] = target: T1, BRSK1 (Homo sapiens, UniProt Q8TDC3); details: BRSK1, 1 µM inhibitor; read-out: Residual activity, %
# T1 sequence (Q8TDC3 1-778): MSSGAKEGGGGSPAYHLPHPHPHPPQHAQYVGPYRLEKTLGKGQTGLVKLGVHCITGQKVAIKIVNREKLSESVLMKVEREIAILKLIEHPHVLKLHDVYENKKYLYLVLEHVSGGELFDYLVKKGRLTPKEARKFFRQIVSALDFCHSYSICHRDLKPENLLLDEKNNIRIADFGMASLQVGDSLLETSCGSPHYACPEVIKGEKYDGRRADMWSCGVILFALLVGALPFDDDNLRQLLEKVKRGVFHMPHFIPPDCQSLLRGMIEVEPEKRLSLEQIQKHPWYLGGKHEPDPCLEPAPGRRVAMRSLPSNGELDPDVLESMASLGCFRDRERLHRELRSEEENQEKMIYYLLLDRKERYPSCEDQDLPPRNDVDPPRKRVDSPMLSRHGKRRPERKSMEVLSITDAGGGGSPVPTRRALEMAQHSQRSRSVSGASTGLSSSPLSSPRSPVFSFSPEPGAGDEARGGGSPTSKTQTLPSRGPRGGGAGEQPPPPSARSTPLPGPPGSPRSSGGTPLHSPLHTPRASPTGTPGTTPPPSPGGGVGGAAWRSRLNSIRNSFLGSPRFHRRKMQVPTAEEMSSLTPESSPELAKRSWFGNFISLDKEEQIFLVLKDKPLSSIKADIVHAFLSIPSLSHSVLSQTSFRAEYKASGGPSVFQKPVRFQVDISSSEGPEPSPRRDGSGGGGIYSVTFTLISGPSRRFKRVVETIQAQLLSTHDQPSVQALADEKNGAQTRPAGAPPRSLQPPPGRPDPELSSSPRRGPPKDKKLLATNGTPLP
# Summary of the method: (§1)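 Each compound, at 1 µM final, is screened against human protein kinases in a radiometric filter-binding format. ATP is set at or under the KM of each kinase. Values give retained activity relative to a control lacking inhibitor.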
# [2] = target: HIPK2 (Homo sapiens, UniProt Q9H2X6); details: HIPK2, 1 µM inhibitor; read-out: Residual activity, %
# Summary of the method: as §1
# [3] = target: T2, IRAK4 (Homo sapiens, UniProt Q9NWZ3); details: IRAK4, 1 µM inhibitor; read-out: Residual activity, %
# T2 sequence (Q9NWZ3 1-460): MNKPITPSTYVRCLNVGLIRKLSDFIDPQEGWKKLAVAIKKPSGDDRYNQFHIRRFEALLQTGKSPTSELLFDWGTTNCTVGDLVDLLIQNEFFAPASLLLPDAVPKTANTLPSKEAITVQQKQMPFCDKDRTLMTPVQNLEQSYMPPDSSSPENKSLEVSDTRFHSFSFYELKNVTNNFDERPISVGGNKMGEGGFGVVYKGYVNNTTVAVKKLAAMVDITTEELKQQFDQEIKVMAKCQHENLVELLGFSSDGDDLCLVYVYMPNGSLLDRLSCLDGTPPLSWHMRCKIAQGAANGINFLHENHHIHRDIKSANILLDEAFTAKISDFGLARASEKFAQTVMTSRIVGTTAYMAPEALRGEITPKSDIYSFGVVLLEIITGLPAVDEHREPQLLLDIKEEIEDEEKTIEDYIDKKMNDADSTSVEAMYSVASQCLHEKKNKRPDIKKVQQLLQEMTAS
# Summary of the method: as §1
# [4] = target: MARK2 (Homo sapiens, UniProt Q7KZI7); details: MARK2, 1 µM inhibitor; read-out: Residual activity, %
# Summary of the method: as §1
# [5] = target: MKK2 (Homo sapiens, UniProt P36507); details: MKK2, 1 µM inhibitor; read-out: Residual activity, %
# Summary of the method: as §1
# [6] = target: MLK1 (Homo sapiens, UniProt P80192); details: MLK1, 1 µM inhibitor; read-out: Residual activity, %
# Summary of the method: as §1
# [7] = target: PAK2 (Homo sapiens, UniProt Q13177); details: PAK2, 1 µM inhibitor; read-out: Residual activity, %
# Summary of the method: as §1
# [8] = target: T3, PKC (Homo sapiens, UniProt Q05513); details: second of two PKC lines (Greek letter lost), 1 µM inhibitor, read-out: Residual activity, %
# T3 sequence (Q05513 1-592): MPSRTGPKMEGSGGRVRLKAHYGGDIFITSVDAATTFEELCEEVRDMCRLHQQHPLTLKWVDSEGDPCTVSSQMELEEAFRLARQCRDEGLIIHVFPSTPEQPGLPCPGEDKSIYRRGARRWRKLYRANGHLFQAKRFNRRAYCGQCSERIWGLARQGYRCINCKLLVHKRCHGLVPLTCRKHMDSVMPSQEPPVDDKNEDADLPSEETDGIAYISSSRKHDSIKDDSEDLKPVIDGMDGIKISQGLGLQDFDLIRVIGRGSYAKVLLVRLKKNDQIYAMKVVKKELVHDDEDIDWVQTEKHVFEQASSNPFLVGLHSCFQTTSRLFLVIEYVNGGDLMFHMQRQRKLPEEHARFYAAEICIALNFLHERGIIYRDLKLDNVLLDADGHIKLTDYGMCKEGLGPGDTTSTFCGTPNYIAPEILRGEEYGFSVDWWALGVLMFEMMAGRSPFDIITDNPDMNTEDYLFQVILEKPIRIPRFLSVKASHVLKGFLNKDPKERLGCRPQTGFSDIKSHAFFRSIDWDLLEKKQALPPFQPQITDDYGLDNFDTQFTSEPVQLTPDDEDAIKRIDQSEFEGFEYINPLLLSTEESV
# Summary of the method: as §1
# [9] = target: T4, TSSK1 (Homo sapiens, UniProt Q9BXA7); details: TSSK1, 1 µM inhibitor; read-out: Residual activity, %
# T4 sequence (Q9BXA7 1-367): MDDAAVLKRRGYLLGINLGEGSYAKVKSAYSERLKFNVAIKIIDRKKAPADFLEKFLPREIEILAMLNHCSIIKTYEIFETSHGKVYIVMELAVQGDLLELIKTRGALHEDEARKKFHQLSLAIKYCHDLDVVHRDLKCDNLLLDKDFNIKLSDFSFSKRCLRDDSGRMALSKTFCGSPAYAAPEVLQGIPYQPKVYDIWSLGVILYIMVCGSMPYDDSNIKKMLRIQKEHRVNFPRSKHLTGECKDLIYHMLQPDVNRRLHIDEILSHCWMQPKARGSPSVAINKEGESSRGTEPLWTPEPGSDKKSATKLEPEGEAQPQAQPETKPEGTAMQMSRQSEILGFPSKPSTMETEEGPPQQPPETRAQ
# Summary of the method: as §1
# Sequence of MKK2 (P36507 whole entry): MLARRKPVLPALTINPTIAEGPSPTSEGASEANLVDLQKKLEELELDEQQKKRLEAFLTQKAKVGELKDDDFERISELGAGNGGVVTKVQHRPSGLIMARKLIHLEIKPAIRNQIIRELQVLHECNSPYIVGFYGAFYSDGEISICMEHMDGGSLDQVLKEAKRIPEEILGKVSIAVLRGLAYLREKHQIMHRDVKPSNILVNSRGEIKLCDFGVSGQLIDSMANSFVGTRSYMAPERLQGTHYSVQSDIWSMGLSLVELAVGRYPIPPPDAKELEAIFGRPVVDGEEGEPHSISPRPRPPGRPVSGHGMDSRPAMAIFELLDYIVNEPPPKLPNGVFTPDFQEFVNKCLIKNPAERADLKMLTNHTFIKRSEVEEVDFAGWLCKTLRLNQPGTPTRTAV
# Sequence of MARK2 (Q7KZI7 whole entry): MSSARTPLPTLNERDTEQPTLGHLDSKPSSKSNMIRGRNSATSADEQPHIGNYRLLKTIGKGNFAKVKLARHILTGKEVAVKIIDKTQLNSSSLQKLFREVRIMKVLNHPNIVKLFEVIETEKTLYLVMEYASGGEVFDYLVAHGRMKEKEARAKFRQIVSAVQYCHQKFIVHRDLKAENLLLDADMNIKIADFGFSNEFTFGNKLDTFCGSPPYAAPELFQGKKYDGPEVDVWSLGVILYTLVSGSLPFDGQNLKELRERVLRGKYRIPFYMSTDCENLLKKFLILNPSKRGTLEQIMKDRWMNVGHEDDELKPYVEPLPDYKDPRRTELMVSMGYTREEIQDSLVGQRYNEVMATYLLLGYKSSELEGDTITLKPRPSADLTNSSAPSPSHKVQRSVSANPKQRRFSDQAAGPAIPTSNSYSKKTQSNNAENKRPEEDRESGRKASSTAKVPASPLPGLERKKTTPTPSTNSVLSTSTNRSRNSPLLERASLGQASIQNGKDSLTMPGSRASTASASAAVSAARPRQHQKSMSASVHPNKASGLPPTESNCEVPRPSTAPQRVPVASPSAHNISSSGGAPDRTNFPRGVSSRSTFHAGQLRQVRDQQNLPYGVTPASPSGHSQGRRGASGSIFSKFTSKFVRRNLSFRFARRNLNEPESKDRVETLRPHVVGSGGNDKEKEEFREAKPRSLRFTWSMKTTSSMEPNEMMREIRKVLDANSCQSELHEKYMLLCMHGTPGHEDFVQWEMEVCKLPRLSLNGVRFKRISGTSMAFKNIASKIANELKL
# Sequence of HIPK2 (Q9H2X6 whole entry): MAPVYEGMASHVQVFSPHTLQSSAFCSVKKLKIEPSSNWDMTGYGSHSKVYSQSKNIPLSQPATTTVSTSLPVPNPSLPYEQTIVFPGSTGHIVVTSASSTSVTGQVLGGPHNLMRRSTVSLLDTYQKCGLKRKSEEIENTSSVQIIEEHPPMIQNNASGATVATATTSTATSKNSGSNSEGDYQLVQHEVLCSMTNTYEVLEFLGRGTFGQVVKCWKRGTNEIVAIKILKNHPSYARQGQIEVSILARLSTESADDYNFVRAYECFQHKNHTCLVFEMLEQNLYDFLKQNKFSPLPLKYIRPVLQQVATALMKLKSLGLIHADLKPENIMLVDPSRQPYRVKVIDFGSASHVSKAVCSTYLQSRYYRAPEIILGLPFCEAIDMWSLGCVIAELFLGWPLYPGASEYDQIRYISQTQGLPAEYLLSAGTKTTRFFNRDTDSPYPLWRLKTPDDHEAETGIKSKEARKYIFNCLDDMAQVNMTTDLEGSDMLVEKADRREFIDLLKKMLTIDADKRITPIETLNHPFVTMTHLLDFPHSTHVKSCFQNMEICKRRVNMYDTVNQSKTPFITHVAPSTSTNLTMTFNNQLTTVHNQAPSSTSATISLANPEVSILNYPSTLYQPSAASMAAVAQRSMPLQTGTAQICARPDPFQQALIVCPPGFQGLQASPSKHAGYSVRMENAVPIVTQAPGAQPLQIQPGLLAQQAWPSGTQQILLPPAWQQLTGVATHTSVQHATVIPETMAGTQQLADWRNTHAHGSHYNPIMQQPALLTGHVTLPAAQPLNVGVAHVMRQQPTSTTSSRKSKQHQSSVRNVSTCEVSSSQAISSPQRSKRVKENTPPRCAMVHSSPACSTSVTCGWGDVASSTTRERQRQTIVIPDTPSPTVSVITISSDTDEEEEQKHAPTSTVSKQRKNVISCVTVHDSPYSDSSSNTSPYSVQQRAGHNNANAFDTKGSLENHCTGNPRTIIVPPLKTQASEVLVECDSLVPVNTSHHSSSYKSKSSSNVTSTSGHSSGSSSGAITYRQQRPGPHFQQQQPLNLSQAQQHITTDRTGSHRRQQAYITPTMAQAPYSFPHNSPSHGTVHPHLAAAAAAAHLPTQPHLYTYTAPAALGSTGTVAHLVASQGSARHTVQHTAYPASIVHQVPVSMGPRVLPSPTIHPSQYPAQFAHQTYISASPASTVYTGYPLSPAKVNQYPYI
# Sequence of PAK2 (Q13177 whole entry): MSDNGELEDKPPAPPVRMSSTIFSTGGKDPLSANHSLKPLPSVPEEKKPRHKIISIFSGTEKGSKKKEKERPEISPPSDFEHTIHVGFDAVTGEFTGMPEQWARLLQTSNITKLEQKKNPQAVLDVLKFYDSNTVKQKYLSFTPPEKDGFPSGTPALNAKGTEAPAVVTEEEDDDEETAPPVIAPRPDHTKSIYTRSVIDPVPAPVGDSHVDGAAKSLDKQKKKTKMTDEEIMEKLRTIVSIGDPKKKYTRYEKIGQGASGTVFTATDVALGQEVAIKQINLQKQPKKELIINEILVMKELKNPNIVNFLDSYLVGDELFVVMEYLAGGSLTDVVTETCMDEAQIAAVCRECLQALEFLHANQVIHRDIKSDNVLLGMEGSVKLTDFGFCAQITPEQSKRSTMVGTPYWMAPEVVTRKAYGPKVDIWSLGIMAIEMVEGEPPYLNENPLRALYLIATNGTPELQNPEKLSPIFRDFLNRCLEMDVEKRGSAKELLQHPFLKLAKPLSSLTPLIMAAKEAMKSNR
# Sequence of MLK1 (P80192 whole entry): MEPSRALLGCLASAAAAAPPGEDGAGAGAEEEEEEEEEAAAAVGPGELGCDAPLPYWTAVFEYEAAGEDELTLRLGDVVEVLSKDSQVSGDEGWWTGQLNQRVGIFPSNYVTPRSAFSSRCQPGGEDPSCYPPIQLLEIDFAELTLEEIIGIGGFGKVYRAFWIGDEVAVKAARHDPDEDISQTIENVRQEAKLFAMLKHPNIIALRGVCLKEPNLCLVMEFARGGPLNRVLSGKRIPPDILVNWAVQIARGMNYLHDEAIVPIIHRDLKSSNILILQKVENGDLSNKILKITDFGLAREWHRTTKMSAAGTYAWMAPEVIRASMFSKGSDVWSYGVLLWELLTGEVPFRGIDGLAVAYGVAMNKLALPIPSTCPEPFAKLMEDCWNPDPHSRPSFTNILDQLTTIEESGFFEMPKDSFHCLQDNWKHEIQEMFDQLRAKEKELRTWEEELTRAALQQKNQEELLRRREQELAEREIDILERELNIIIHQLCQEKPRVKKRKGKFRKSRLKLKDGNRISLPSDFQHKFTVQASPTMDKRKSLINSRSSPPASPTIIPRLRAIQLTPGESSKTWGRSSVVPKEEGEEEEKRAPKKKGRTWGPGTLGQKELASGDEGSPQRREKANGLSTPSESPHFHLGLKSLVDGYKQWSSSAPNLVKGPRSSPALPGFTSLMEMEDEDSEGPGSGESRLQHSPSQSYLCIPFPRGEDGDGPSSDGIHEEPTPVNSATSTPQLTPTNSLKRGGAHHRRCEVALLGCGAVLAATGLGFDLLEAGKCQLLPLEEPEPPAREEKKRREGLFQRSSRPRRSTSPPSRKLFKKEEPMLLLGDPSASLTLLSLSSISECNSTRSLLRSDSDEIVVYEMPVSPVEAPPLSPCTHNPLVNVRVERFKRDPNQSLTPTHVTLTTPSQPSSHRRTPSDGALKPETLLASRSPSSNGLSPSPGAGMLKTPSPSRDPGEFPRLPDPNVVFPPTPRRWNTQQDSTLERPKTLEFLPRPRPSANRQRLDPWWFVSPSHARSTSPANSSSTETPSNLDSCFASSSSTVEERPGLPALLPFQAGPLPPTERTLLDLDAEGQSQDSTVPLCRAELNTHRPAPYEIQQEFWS
Structure (SMILES),remaining activity at 1 µM [1],remaining activity at 1 µM [2],remaining activity at 1 µM [3],remaining activity at 1 µM [4],remaining activity at 1 µM [5],remaining activity at 1 µM [6],remaining activity at 1 µM [7],remaining activity at 1 µM [8],remaining activity at 1 µM [9]
"N=C(N)NCCC[C@@H](NC(=O)CCCCCNC(=O)Cn1cnc2c(I)c(I)c(I)c(I)c21)C(=O)N[C@H](CCCNC(=N)N)C(=O)N[C@H](CCCNC(=N)N)C(=O)N[C@H](CCCNC(=N)N)C(=O)N[C@H](CCCNC(=N)N)C(=O)N[C@H](CCCNC(=N)N)C(=O)N[C@H](CCCCN)C(N)=O [ARC-3125, TIBI-CH2-C(=O)-Ahx-(D-Arg)6-D-Lys-NH2]",84 ± 2%,16 ± 2%,73 ± 2%,86 ± 4%,68 ± 5%,100 ± 8%,29 ± 4%,14 ± 1%,63 ± 6%
"N=C(N)NCCC[C@@H](NC(=O)CNC(=O)[C@@H](CCCNC(=N)N)NC(=O)[C@@H](CCCNC(=N)N)NC(=O)CCCCCCCNCc1nc2c(sc3cc(Br)cnc32)c(=O)[nH]1)C(=O)N[C@H](CCCCN)C(N)=O [Compound 1, BPTP-Aoc-(D-Arg)2-Gly-D-Arg-D-Lys-NH2]",107 ± 5%,103 ± 13%,110 ± 3%,106 ± 10%,102 ± 5%,112 ± 13%,99 ± 9%,95 ± 6%,98 ± 9%
"N=C(N)NCCC[C@@H](NC(=O)CCCCCNCc1nc2c(sc3cc(Br)cnc32)c(=O)[nH]1)C(=O)N[C@H](CCCNC(=N)N)C(=O)N[C@H](CCCNC(=N)N)C(=O)N[C@H](CCCNC(=N)N)C(=O)N[C@H](CCCNC(=N)N)C(=O)N[C@H](CCCNC(=N)N)C(=O)N[C@H](CCCCN)C(N)=O [ARC-3126, BPTP-Ahx-(D-Arg)6-D-Lys-NH2] (X3-[dR][dR][dR][dR][dR][dR][dK]-NH2)",50 ± 10%,75 ± 15%,97 ± 2%,103 ± 7%,117 ± 14%,122 ± 21%,72 ± 5%,92 ± 4%,97 ± 16%
"N=C(N)NCCC[C@@H](NC(=O)CNC(=O)[C@@H](CCCNC(=N)N)NC(=O)[C@@H](CCCNC(=N)N)NC(=O)Cn1cc(CNCc2nc3c(sc4ccc(Br)cc43)c(=O)[nH]2)nn1)C(=O)N[C@H](CCCCN)C(N)=O [Compound 3, BBTP-Amt-(D-Arg)2-Gly-D-Arg-D-Lys-NH2]",90 ± 11%,50 ± 7%,107 ± 7%,79%,96 ± 7%,101 ± 9%,91 ± 4%,89 ± 2%,100 ± 10%
"N=C(N)NCCC[C@@H](NC(=O)CNC(=O)[C@@H](CCCNC(=N)N)NC(=O)[C@@H](CCCNC(=N)N)NC(=O)CCCCCCCNCc1nc2c(sc3ccc(Br)cc32)c(=O)[nH]1)C(=O)N[C@H](CCCCN)C(N)=O [Compound 2, BBTP-Aoc-(D-Arg)2-Gly-D-Arg-D-Lys-NH2]",101%,48 ± 2%,108 ± 8%,107 ± 4%,108 ± 11%,98 ± 8%,100 ± 10%,118 ± 11%,108%
